Target: T1, beta secretase (Homo sapiens, UniProt P56817)
T1 construct: made in house; host or cells: CHO-K1 cells (secreted, glycosylated)
Assay: beta secretase enzymatic activity assayed by HPLC analysis of the products
Format: biochemical
Conditions: CHO cell derived human beta secretase cleaved at F39-V40 by HIV-1 protease and purified, compared with non-treated beta secretase
Protocol: Purified HIV-1 protease treated (and non-treated) beta secretase were assayed for activity by HPLC analysis of the products.

B1: HIV-1 protease treated beta secretase: CHO cell expressed recombinant human beta secretase proteolytically cleaved with HIV protease (N-terminus V40), used for crystallization (protein)
chain: VEMVDNLRGKSGQGYYVEMTVGSPPQTLNILVDTGSSNFAVGAAPHPFLHRYYQRQLSSTYRDLRKGVYVPYTQGKWEGELGTDLVSIPHGPNVTVRANIAAITESDKFFINGSNWEGILGLAYAEIARPDDSLEPFFDSLVKQTHVPNLFSLQLCGAGFPLNQSEVLASVGGSMIIGGIDHSLYTGSLWYTPIRREWYYEVIIVRVEINGQDLKMDCKEYNYDKSIVDSGTTNLRLPKKVFEAAVKSIKAASSTEKFPDGFWLGEQLVCWQAGTTPWNIFPVISLYLMGEVTNQSFRITILPQQYLRPVEDVATSQDDCYKFAISQSSTGTVMGAVIMEGFYVVFDRARKRIGFAVSACHVHDEFRTAAVEGPFVTLDMEDCGYNIPQTDESHHHHHH
- more enzymatic activity than non-treated (unprocessed) beta secretase: 10-20%
